Measurements taken from paper PMC6542653.
Residue numbers refer to the chain shown, from its start.

Legend:
[1] = molecular target: T1, CytR DNA-binding domain wild type (UniProt P0ACN7 1-66); assay: fluorescence anisotropy
T1 sequence: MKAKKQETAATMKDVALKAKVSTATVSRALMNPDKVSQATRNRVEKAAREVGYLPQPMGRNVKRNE

[2] = molecular target: T2, CytR DNA-binding domain double mutant (DM) (UniProt P0ACN7 1-66, A29V;A48M); assay: fluorescence anisotropy
T2 sequence: T1 sequence with A29V, A48M

B1: udp half-site (udpO) (dsDNA)
DNA 1: ATTTATGCAACGCA
DNA 2: TGCGTTGCATAAAT
B1: binds [1]; binds [2].
